Experimental data as given in the RNAGym collection of RNA variant scans (doi:10.7554/elife.80360).

B1: Hairpin Ribozyme (parent)
chain: GUCCUCUUUCACGUGCGCGUGAAAGAGAGAAGUGAACCAGAGAAACACACGUUGUGGUAUAUUACCUGGUA

Variants of: B1
Assay: self-cleavage, relative activity (ratio to wild type); higher = more cleavage; co-transcriptional

Variant | self-cleavage
GUCCUCUUUCACGUGCGCGUGAAAGAAAGAAGUGAACCAGAGAAACACCCGUUGUGGUAUAUUACCUGGUA [G27A A49C] | 0.154
GUCCUCUUUCACGUGCGCGUGAAAGAAAGAAGUGAACCAGAGAAACACGCGUUGUGGUAUAUUACCUGGUA [G27A A49G] | 0.237
GUCCUCUUUCACGUGCGCGUGAAAGAAAGAAGUGAACCAGAGAAACACUCGUUGUGGUAUAUUACCUGGUA [G27A A49U] | 0.112
GUCCUCUUUCACGUGCGCGUGAAAGUGAGAAGUGAACCAGAGAAACACACGUUGUGGUAAAUUACCUGGUA [A26U U60A] | 0.328
GUCCUCUUUCACGUGCGCGUGAAAGUGAGAAGUGAACCAGAGAAACACACGUUGUGGUAUAGUACCUGGUA [A26U U62G] | 0.141
GUCCUCUUUCACGUGCGCGUGAAAGUGAGAAGUGAACCAGAGAAACACACGUUGUGGUAUAUUACCUGAUA [A26U G69A] | 0.203
GUCCUCUUUCACGUGCGCGUGAAAGAAAGAUGUGAACCAGAGAAACACACGUUGUGGUAUAUUACCUGGUA [G27A A31U] | 0.153
GUCCUCUUUCACGUGCGCGUGAAAGAAAGAGGUGAACCAGAGAAACACACGUUGUGGUAUAUUACCUGGUA [G27A A31G] | 0.221
GUCCUCUUUCACGUGCGCGUGAAAGAAAGAAGUGAACCAGAGAAACACACGUUGUGGUAUAUUACCUGCUA [G27A G69C] | 0.198
GUCCUCUUUCACGUGCGCGUGAAAGAAAGAAGUGAACCAGAGAAACACACGUUGUGGUAUAAUACCUGGUA [G27A U62A] | 0.155
GUCCUCUUUCACGUGCGCGUGAAAGUGAGAAGAGAACCAGAGAAACACACGUUGUGGUAUAUUACCUGGUA [A26U U33A] | 0.148
GUCCUCUUUCACGUGCGCGUGAAAGUGAGAAGCGAACCAGAGAAACACACGUUGUGGUAUAUUACCUGGUA [A26U U33C] | 0.141
GUCCUCUUUCACGUGCGCGUGAAAGAAAGAAGUGAACCAGAGAAACACACGCUGUGGUAUAUUACCUGGUA [G27A U52C] | 0.477
GUCCUCUUUCACGUGCGCGUGAAAGAAAGAAGUGAACCAGAGAAACACACGGUGUGGUAUAUUACCUGGUA [G27A U52G] | 0.431
GUCCUCUUUCACGUGCGCGUGAAAGACAGAAGUGAACCAGAGAAACACACGUUGUGGUUUAUUACCUGGUA [G27C A59U] | 0.16
GUCCUCUUUCACGUGCGCGUGAAAGAAAGAAGUGAACCAGAGAAACACACGUUGUGGUAUAUUACAUGGUA [G27A C66A] | 0.204
GUCCUCUUUCACGUGCGCGUGAAAGAAAGGAGUGAACCAGAGAAACACACGUUGUGGUAUAUUACCUGGUA [G27A A30G] | 0.0562
GUCCUCUUUCACGUGCGCGUGAAAGAAAGCAGUGAACCAGAGAAACACACGUUGUGGUAUAUUACCUGGUA [G27A A30C] | 0.141
GUCCUCUUUCACGUGCGCGUGAAAGAAAGAAGUGAACCAGAGAAACACACGUUGUGGAAUAUUACCUGGUA [G27A U58A] | 0.176
GUCCUCUUUCACGUGCGCGUGAAAGAAAGAAGUGAACCAGAGAAACACACGUUGUGCUAUAUUACCUGGUA [G27A G57C] | 0.184
GUCCUCUUUCACGUGCGCGUGAAAGAAAGAAGUGAACCACAGAAACACACGUUGUGGUAUAUUACCUGGUA [G27A G40C] | 0.104
GUCCUCUUUCACGUGCGCGUGAAAGACAGGAGUGAACCAGAGAAACACACGUUGUGGUAUAUUACCUGGUA [G27C A30G] | 0.172
GUCCUCUUUCACGUGCGCGUGAAAGAAAGAAGUGAACCAGAGAAACAAACGUUGUGGUAUAUUACCUGGUA [G27A C48A] | 0.178
GUCCUCUUUCACGUGCGCGUGAAAGAAAGAAGUGAACCAGAGAAACAUACGUUGUGGUAUAUUACCUGGUA [G27A C48U] | 0.183
GUCCUCUUUCACGUGCGCGUGAAAGACAGAAGUGAACCAGAGAAACACACGUUGUGGUAUUUUACCUGGUA [G27C A61U] | 0.119
GUCCUCUUUCACGUGCGCGUGAAAGAAAGAAGUGAACCAGAGAAACACACGUUGUGGUAUAUUACCUUGUA [G27A G68U] | 0.184

Variant | self-cleavage
GUCCUCUUUCACGUGCGCGUGAAAGAAAGAAGUGAACCAGAGAAACACACGUUGUGGUAUAUUACCUCGUA [G27A G68C] | 0.215
GUCCUCUUUCACGUGCGCGUGAAAGACAGAAGUGAACCAGAGAAACACACGUUGUGGUAUAUUAUCUGGUA [G27C C65U] | 0.159
GUCCUCUUUCACGUGCGCGUGAAAGUGAGAAGUGAACCAGAGAAACACACGUGGUGGUAUAUUACCUGGUA [A26U U53G] | 0.489
GUCCUCUUUCACGUGCGCGUGAAAGAAAGAAAUGAACCAGAGAAACACACGUUGUGGUAUAUUACCUGGUA [G27A G32A] | 0.0917
GUCCUCUUUCACGUGCGCGUGAAAGAAAGAACUGAACCAGAGAAACACACGUUGUGGUAUAUUACCUGGUA [G27A G32C] | 0.226
GUCCUCUUUCACGUGCGCGUGAAAGAAAGAAGUGAACUAGAGAAACACACGUUGUGGUAUAUUACCUGGUA [G27A C38U] | 0.2
GUCCUCUUUCACGUGCGCGUGAAAGACAGAAGUGAACAAGAGAAACACACGUUGUGGUAUAUUACCUGGUA [G27C C38A] | 0.116
GUCCUCUUUCACGUGCGCGUGAAAGAAAGAAGUGAACCCGAGAAACACACGUUGUGGUAUAUUACCUGGUA [G27A A39C] | 0.2
GUCCUCUUUCACGUGCGCGUGAAAGUGAGAAGUGAACCAGAGAAACACACGUUGUGCUAUAUUACCUGGUA [A26U G57C] | 0.123
GUCCUCUUUCACGUGCGCGUGAAAGAAAGAAGUGAACCAGAGAAACACACGUUGUGGUAUAUUACCUGGGA [G27A U70G] | 0.227
GUCCUCUUUCACGUGCGCGUGAAAGAAAGAAGUGAACCAGAGAAACACACGUUCUGGUAUAUUACCUGGUA [G27A G54C] | 0.105
GUCCUCUUUCACGUGCGCGUGAAAGAAAGAAGUGAACCAGAGAAACACACAUUGUGGUAUAUUACCUGGUA [G27A G51A] | 0.337
GUCCUCUUUCACGUGCGCGUGAAAGAAAGAAGUGAACCAGAGAAACACACUUUGUGGUAUAUUACCUGGUA [G27A G51U] | 0.458
GUCCUCUUUCACGUGCGCGUGAAAGAAAGAAGUGAACCAGACAAACACACGUUGUGGUAUAUUACCUGGUA [G27A G42C] | 0.145
GUCCUCUUUCACGUGCGCGUGAAAGAAUGAAGUGAACCAGAGAAACACACGUUGUGGUAUAUUACCUGGUA [G27A A28U] | 0.393
GUCCUCUUUCACGUGCGCGUGAAAGACAGAAGUGAACCAGAGAAACACACGUUGUGGUAUAUUACCUGGUC [G27C A71C] | 0.53
GUCCUCUUUCACGUGCGCGUGAAAGAAAGAAGUGAACCAGAGAAACACACGUUGUGGUAUUUUACCUGGUA [G27A A61U] | 0.155
GUCCUCUUUCACGUGCGCGUGAAAGACAGAAGUGAACCAGAGAAACGCACGUUGUGGUAUAUUACCUGGUA [G27C A47G] | 0.125
GUCCUCUUUCACGUGCGCGUGAAAGACAGAAGUGAACCGGAGAAACACACGUUGUGGUAUAUUACCUGGUA [G27C A39G] | 0.0932
GUCCUCUUUCACGUGCGCGUGAAAGAAAGAAGUUAACCAGAGAAACACACGUUGUGGUAUAUUACCUGGUA [G27A G34U] | 1.3
GUCCUCUUUCACGUGCGCGUGAAAGAAAGAAGUCAACCAGAGAAACACACGUUGUGGUAUAUUACCUGGUA [G27A G34C] | 0.945
GUCCUCUUUCACGUGCGCGUGAAAGACAGAAGUGAACCAGAGAGACACACGUUGUGGUAUAUUACCUGGUA [G27C A44G] | 0.21
GUCCUCUUUCACGUGCGCGUGAAAGACAGAAGUGAACCAGAGAUACACACGUUGUGGUAUAUUACCUGGUA [G27C A44U] | 0.0991
GUCCUCUUUCACGUGCGCGUGAAAGAAAGAAGUGAACCAGAGAAACACACGUUGUGGUAUAUUACCUGGUG [G27A A71G] | 0.545
GUCCUCUUUCACGUGCGCGUGAAAGUGAGAAGUGAACCAGAGAAACACACGGUGUGGUAUAUUACCUGGUA [A26U U52G] | 0.442
GUCCUCUUUCACGUGCGCGUGAAAGUGAGAAGUGAACCAGAGAAACACACGUUGUGGGAUAUUACCUGGUA [A26U U58G] | 0.631

Variant | self-cleavage
GUCCUCUUUCACGUGCGCGUGAAAGUGAGAAGUGAACCAGAGAAACACACGUUGGGGUAUAUUACCUGGUA [A26U U55G] | 0.281
GUCCUCUUUCACGUGCGCGUGAAAGUGAGAAGUGAACCAGAGAAACACACGUUGCGGUAUAUUACCUGGUA [A26U U55C] | 0.23
GUCCUCUUUCACGUGCGCGUGAAAGAAAGAAGUGAACCAGAGAAACACACGUGGUGGUAUAUUACCUGGUA [G27A U53G] | 0.518
GUCCUCUUUCACGUGCGCGUGAAAGAAAGAAGUGAACCAGAGAAACACACGUCGUGGUAUAUUACCUGGUA [G27A U53C] | 0.64
GUCCUCUUUCACGUGCGCGUGAAAGACAGAAGUGAACCAGAGAAAAACACGUUGUGGUAUAUUACCUGGUA [G27C C46A] | 0.0983
GUCCUCUUUCACGUGCGCGUGAAAGACAGAAGUGAACCAGAGAAAGACACGUUGUGGUAUAUUACCUGGUA [G27C C46G] | 0.152
GUCCUCUUUCACGUGCGCGUGAAAGAAAGAAGUGAACCAGAGAAACACACGUUGUGGUAUAUUACCCGGUA [G27A U67C] | 0.141
GUCCUCUUUCACGUGCGCGUGAAAGACAGAAGUGAACCAGAGAAGCACACGUUGUGGUAUAUUACCUGGUA [G27C A45G] | 0.19
GUCCUCUUUCACGUGCGCGUGAAAGACAGAAGUGAACCAGAGAAUCACACGUUGUGGUAUAUUACCUGGUA [G27C A45U] | 0.202
GUCCUCUUUCACGUGCGCGUGAAAGUGAGAAGUGAACCAGAGAAACACACGUUGUGGUAUAUUACCCGGUA [A26U U67C] | 0.176
GUCCUCUUUCACGUGCGCGUGAAAGAAAGAAGUGAACCAGAGAAACACAUGUUGUGGUAUAUUACCUGGUA [G27A C50U] | 0.124
GUCCUCUUUCACGUGCGCGUGAAAGAAAGAAGUGAAGCAGAGAAACACACGUUGUGGUAUAUUACCUGGUA [G27A C37G] | 0.15
GUCCUCUUUCACGUGCGCGUGAAAGUGAGAAGUGAACCAGAGAAACACACGUUGUGGUAUAUAACCUGGUA [A26U U63A] | 0.127
GUCCUCUUUCACGUGCGCGUGAAAGAAAGAAGUGAACCAGAGACACACACGUUGUGGUAUAUUACCUGGUA [G27A A44C] | 0.143
GUCCUCUUUCACGUGCGCGUGAAAGAAAGAAGUGAACCAGAGAUACACACGUUGUGGUAUAUUACCUGGUA [G27A A44U] | 0.139
GUCCUCUUUCACGUGCGCGUGAAAGAAAUAAGUGAACCAGAGAAACACACGUUGUGGUAUAUUACCUGGUA [G27A G29U] | 0.126
GUCCUCUUUCACGUGCGCGUGAAAGAAAGAAGUGAACCAGAGUAACACACGUUGUGGUAUAUUACCUGGUA [G27A A43U] | 0.052
GUCCUCUUUCACGUGCGCGUGAAAGAAAGAAGUGAACCAGAGAAACACACGUUGUGGUACAUUACCUGGUA [G27A U60C] | 0.657
GUCCUCUUUCACGUGCGCGUGAAAGACAGAAGUGAACCAGUGAAACACACGUUGUGGUAUAUUACCUGGUA [G27C A41U] | 0.367
GUCCUCUUUCACGUGCGCGUGAAAGACAGAAGUGAACCAGCGAAACACACGUUGUGGUAUAUUACCUGGUA [G27C A41C] | 0.228
GUCCUCUUUCACGUGCGCGUGAAAGAAAGAAGUGAACCAGAGAAACACACGUUGUGGUAUAUUUCCUGGUA [G27A A64U] | 0.174
GUCCUCUUUCACGUGCGCGUGAAAGAAAGAAGUGAACCAGAGAAACACACGUUGUGGUAUAUUAACUGGUA [G27A C65A] | 0.396
GUCCUCUUUCACGUGCGCGUGAAAGAAAGAAGUGAACCAGAGAAACACACGUUGUGGUAUAUUAUCUGGUA [G27A C65U] | 0.145
GUCCUCUUUCACGUGCGCGUGAAAGAAAGAAGUGAACCAGAGAAACCCACGUUGUGGUAUAUUACCUGGUA [G27A A47C] | 0.214
